This data set is described as follows: label from the status in PepcDB records.
“MGTRWFAKNTTMSKNSIVIGVDLDGVCADFYGRMRQIASEWFERPIDELPEEVSWGLSEWGITNPSQYDSLHRFAVTQRELFSSMEAIPGARKYLRQLSDEGFRIRIITHRLFIHYFHATAVQQTVNWLDSHGIPYWDLCFVKEKTQVGADIYIEDSPENVAQLRGRGLFTICFGNSTNRHIEELRAASWQDVYDMIKAFVT”: the protein production entry is “failed”.

For the sequence “MGTYRKRFNEKARSGHMAKLKELKRIRNKQFTRQDENDERVENPDSAPAESSTTEPNANAEILEPLTEEEKKMKKRKLQELFTPKESKVSRLKKKRLDKFIEHQLKREERKTIIGKLQDYKIDTSLLTSSKRLGEGRQTKKEEFKEALSLERQGRGNEQTNEILYEEYEPKVWDEYGEGGSSEDDDGEDDFEASFGSMPKPTDNEEKKSSGFIDHRPAKFGGSGLSFGFSNIKVINKESKTPKKKYNWRQRVEMEELKKHGKEDEMDFDTTSEDDDEEEDQEEEDKMHPSENPLEEVESADSETGSEKFDQNDVANEFKDWANQEIKKLEGRDQELVTPTLNIDYKPIIRKEDLDDGLQEAYVPINENSTRKAFYVEVSRSDEIQKARIQLPVFGEEHKIMEAIHHNDVVIICGETGSGKTTQVPQFLYEAGFGAEDSPDYPGMVGITQPRRVAAVSMAERVANELGDHGHKVGYQIRFDSTAKEDTKVKFMTDGVLLREMMHDFKLTKYSSIIIDEAHERNINTDILIGMLSRCVRLRAKLHKENPIEHKKLKLIIMSATLRVSDFSENKTLFPIAPPVLQVDARQFPVSIHFNRRTAFNYTDEAFRKTCKIHQKLPPGAILVFLTGQQEITHMVKRLRKEFPFKKNSKYNKDLETPVSKMGINSKTTDLEAEDIDFSVQVIDQDKFKSAIRYEEDEGNSGNGEDEEDEEEEGFEEVLTEGQTANDPLYVLPLYSLLPTKEQMRVFQKPPQGSRLCIVATNVAETSLTIPGVRYVVDSGRSKERKYNESNGVQSFEVGWVSKASANQRSGRAGRTGPGHCYRLYSSAVFEHDFEQFSKPEILRMPVESIVLQMKSMAIHNIINFPFPTPPDRVALSKAIQLLQYLGALDNKEMITEDGKKMSLFPLSPRFSKMLLVSDEKACLPYIVAIVSALSVGDPFINEFELGINEISRKPNPDENLDDKIREHDESTPGMDPELKKELRSKFYKSRSQFSKLDKFSDVFRLLSVVSAMDYVPKEQKEIFMKKNFLRGKLMEEIVKLRKQLMYIIKSNTSKENIAVVIRNEDLKSDIPSVIQIKLLKQMICAGFVDHVAVRADVLFPDDAKITNRTSIINIPYIPVLATRTPNIEDCFVYIHPTSILNNLGEMPPKYMLYYSLHLGGNNKTRMNTLCDIASTPLANIARKGLLLTYSKPLTGQGLKTVNLSPTERYCYVVPRFGSTVDNDLKIGWDLNPIAVHQKKQKGQWTVIKFITRKGFQTITGEEKEKK”, the protein production result was “failed”.

As to “MGVALLLLVGGAELLVRSALRLAQRLHVRPLIIGLSLVAFGSTAPQLTVSLQAAYQGAPDVAVGSVIGSNIFNVLVILGLAALIIPLRVSRQLVRLDIPLMILASGLVYALSANAHLGRVEGALLLLGLAGYLAMLWHQSRHYARTYPAPDAARSGAGRFWSGTLLQILVGLGLLSLAGHLLLEAAIEVATDLGLSERIIGLTVVAICTSLPELAAALIAALRGEREIAVGTVIGSNLFNLLAVLGLTALITPEPLSISPNALSFDLPVMLGVAALSLPVFYSGYRITRAEGLVFLCLYLAYGLHVAAFTMGMPLAGRLERLMLFYVLPVLATVLLYTTVRAWRRQH”, the protein production result is listed as “failed”.

“MGVKFTLMGTTAGLGVPAFHCNCIACREARADPFWARTRSGAVLETGKENILIDASPDLSKQLLRERIQSVDYLFVTHWHYDHFGGIGDLEYYVKLERKWPVALFLPPSAVDDFAKVYPFLEEVFVIEPWEFGKSYAFEGIELTVLPARHSIETGGILLAGSKRAAYFTDTAGLPAPTARQLQGVDTLICDATFNGANWFPHSHMNWQEAIALGESIRAQHTVLTHLAMHYSTPITAAQLQEKLKDYAQVSLAYDGMVLTI”: the protein production result is “failed”.

In the case of “MGVLRVGLCPGLTEEMIQLLRSHRIKTVVDLVSADLEEVAQKCGLSYKALVALRRVLLAQFSAFPVNGADLYEELKTSTAILSTGIGSLDKLLDAGLYTGEVTEIVGGPGSGKTQVCLCMAANVAHGLQQNVLYVDSNGGLTASRLLQLLQAKTQDEEEQAEALRRIQVVHAFDIFQMLDVLQELRGTVAQQVTGSSGTVKVVVVDSVTAVVSPLLGGQQREGLALMMQLARELKTLARDLGMAVVVTNHITRDRDSGRLKPALGRSWSFVPSTRILLDTIEGAGASGGRRMACLAKSSRQPTGFQEMVDIGTWGTSEQSATLQGDQT”, the protein production entry is on record as “failed”.

Take “MGVPEINEYGQQVNDLVPGWQGAQVLRRTALNGRFCRLEPLDVDRHAADLFAAYALGDNSDWTWLASTRPESVTATAHWIAGKVNDDVLVPYAVVDLRSEQAVGIVSYMAIEREMGTVEIGHVTWSRRMKNTPLGTEAVWLLLKNGFDHGYRRLEWKCDSMNVASRRAAERLGFSWEGRLRQRLVRKGRTRDSDMLSIIDGEWPARDAALRAWLAAENFTADGQQIKRLEAFR”: the protein production entry was “failed”.

In the case of “MGVSFKISKVGRKFRPKISTELATPDSPKAIVLSGKPKATDDSNIGDVSGFSKPSLPDISPDHEVSFILSLYPNGYSIGKTSEAMQQISFRDVPKVLHPYDRAAEGLLSAIEAGRLPGDILEDIPCKFVDGVVICEVHDYRKHTSSQVSPVINKLRLKMSLENVVKDIPSMSDNSWTYGDLMVIMVARGL”, the protein production entry was “failed”.

With “MGVTLAKGGNVSLSKAAPNLTQVLVGLGWDARSTTGAPFDLDASALVCSSGRVLGDEWFVFYNQLKSPDGSIEHTGDNLTGEGDGDDESLLVDLSKVPAHCDKIVFPVSIHMADERGQTFGQVSNAFIRVVNQADGQELARYDLSEDASTETAMIFGELYRYQGEWKFRAVGQGYASGLRGIALDFGVNVS”, the protein production result is “not failed”.

In the case of “MGVTLEGQRKESIWVLMRRQRARRALVKKIMIRPRKSVEASRRPCRAIHRRVKTLKELVPNTKTSEGLDGLFRQTADYILALEMKVKVMQTMVQVLTETNCV”, the protein production result is “failed”.

As to “MGWEFFSLETLQELARQYGYGAVFFGIALENAGIPIPGETITLLGGFLAGSGDLSYGGVLIAAIAGAVLGDSCGYWVGRWGGWPLLTRAAQLFNIPQEKLDQARHKFSQNGAAAVFFGRFVTLLRIFAGPMAGIVRMPYGKFLLYNIGGASVWAAITVSLAYFLGRVVTIEQIIAWTTQFSWFALAAVVGMVGIYFVFHFLQKRFDQTIESTIGDRPQ”, the protein production result is reported as “failed”.

In the case of “MGWFFVFCAAISEIVGVIGLKMYSKDKTLANGAIYIGGFATSFAFLYTSFLFLQVSVAYAVWIGIGTAGAVLLNMFLFGESKSKARIISVFLIVCGVTGLKALS”, the protein production result is given as “failed”.

“MGYPPIRRFEYEHRGTETFTGRSPVPCHHAGIMSLYLRKQAYGVAPMKKIILSTIAALVASGSVFASYGTAAAQDYPYRPRYDRGYDRGGPPPPPYREHRRHNDGAAIAGGLAAGVIGGLIGGAIANGNGGPRYYEPPPPPRCWFEDRRVPNAYDGGWHMESMRVCN”: the protein production entry is “failed”.

Values taken from a protein production outcome set (Wang et al. 2014).
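Note: failed if final PepcDB status was selected cloned or expressed and not failed if soluble or beyond.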
